Sequences and labels used below:
B1: STK38L (parent)
chain: FCIDSENRIGNSGVEEIKGHPFFE

Drawing on the supplement of paper PMC10567573, this text covers protein stability index for 94 variants.
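Further: lentivirally expressed fusions sorted by FACS into six bins by GFP to DsRed ratio, PSI derived from sequencing read proportions per bin multiplied by bin number.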

In the data set the parent is B1. As to the kind of experiment: protein stability index of a GFP-peptide fusion (GPS, HEK-293T) (PSI 1-6); higher = more stable. Conditions: c terminus: a fixed tail appended.
For FCIDSHNRIGNSGVEEIKGHPFFE, the protein stability index is 2.16.

For FCIDSENRIGNSGVEEIKCHPFFE, the protein stability index amounted to 1.68.

For FCIDSENRIGNSGVEEIKNHPFFE, the protein stability index came out at 2.68.

In the case of FCIDSENRIGNSGVEEIKYHPFFE, the protein stability index worked out at 1.99.

On to FCIDSENRIGNSGVEEIKTHPFFE, for which the protein stability index came to 2.19.

As for FCIDSENRIGNSGVEEIKKHPFFE, the protein stability index was 2.16.

FCIDSENRIGNSGVEEIKHHPFFE: the protein stability index was determined as 2.13.

FCIDSENRIGNSGVEEIKGHYFFE: the protein stability index is 2.25.

Take FCIDSENRIGNSGVEEIKGHQFFE: the protein stability index was found to be 2.99.

For the variant FCIDSENRIGNSGVEEIKGHAFFE, the protein stability index came out at 2.72.

On to FCIDSEIRIGNSGVEEIKGHPFFE, for which the protein stability index came to 1.58.

For FCIDSEGRIGNSGVEEIKGHPFFE, the protein stability index came to 2.26.

Take FCIDSEKRIGNSGVEEIKGHPFFE: the protein stability index came out at 2.25.

Regarding FCIDSEARIGNSGVEEIKGHPFFE, the protein stability index amounted to 2.93.

On to FCIDSEYRIGNSGVEEIKGHPFFE, for which the protein stability index stood at 1.8.

Turning to FCIDSENRIFNSGVEEIKGHPFFE, the protein stability index amounted to 1.57.

For FCIDSENRIINSGVEEIKGHPFFE, the protein stability index amounted to 1.87.

As for FCIDSENRITNSGVEEIKGHPFFE, the protein stability index worked out at 2.38.

On to FCIDSENRIRNSGVEEIKGHPFFE, for which the protein stability index came to 2.98.

Turning to FCIQSENRIGNSGVEEIKGHPFFE, the protein stability index was 2.78.

In the case of FCIKSENRIGNSGVEEIKGHPFFE, the protein stability index stood at 2.83.

With FCIESENRIGNSGVEEIKGHPFFE, the protein stability index came out at 2.91.

FCIDAENRIGNSGVEEIKGHPFFE: the protein stability index is 1.95.

On to FCIDMENRIGNSGVEEIKGHPFFE, for which the protein stability index stood at 2.12.

Regarding FCIDYENRIGNSGVEEIKGHPFFE, the protein stability index was 1.88.

With FCIDGENRIGNSGVEEIKGHPFFE, the protein stability index is 2.53.

As to FCIDQENRIGNSGVEEIKGHPFFE, the protein stability index came to 2.49.

Regarding FCIDKENRIGNSGVEEIKGHPFFE, the protein stability index was 1.9.

Turning to FCIDSENRLGNSGVEEIKGHPFFE, the protein stability index is 1.99.

Take FCIDSENRKGNSGVEEIKGHPFFE: the protein stability index is 2.19.

In the case of FCIDSENREGNSGVEEIKGHPFFE, the protein stability index turned out to be 3.42.

As to FCIDSENRNGNSGVEEIKGHPFFE, the protein stability index came to 2.2.

For FCIDSENRHGNSGVEEIKGHPFFE, the protein stability index is 2.9.

With FCIDSENRIGNSGVEMIKGHPFFE, the protein stability index came out at 2.28.

Take FCIDSENRIGNSGVELIKGHPFFE: the protein stability index was determined as 1.79.

Turning to FCIDSENRIGNSGVEHIKGHPFFE, the protein stability index worked out at 2.22.

With FCIDSENRIGNSGVENIKGHPFFE, the protein stability index was determined as 2.06.

Regarding FCIDSENRIGNSGVEWIKGHPFFE, the protein stability index worked out at 1.44.

Consider FCIDSENRIGNSGVEEIDGHPFFE, for which the protein stability index was found to be 4.12.

As to FCIDSENRIGNSGVEEIIGHPFFE, the protein stability index was 2.31.

Consider FCIDSENRIGNSGVEEIAGHPFFE, for which the protein stability index came out at 2.48.

For the variant FCIDSENRIGNSGVEEIGGHPFFE, the protein stability index was 2.36.

Consider FCIDSENRIGNSGVEENKGHPFFE, for which the protein stability index turned out to be 2.88.

Turning to FCIDSENRIGNSGVEECKGHPFFE, the protein stability index was 2.84.

Turning to FCIDSENRIGNSGVEEYKGHPFFE, the protein stability index amounted to 2.18.

Regarding FCIDSENRIGNSGVEEKKGHPFFE, the protein stability index was 2.35.

For FCIDSENRIGNSGVEELKGHPFFE, the protein stability index came to 2.61.

On to FCFDSENRIGNSGVEEIKGHPFFE, for which the protein stability index was 2.23.

Take FCNDSENRIGNSGVEEIKGHPFFE: the protein stability index turned out to be 3.43.

Turning to FCTDSENRIGNSGVEEIKGHPFFE, the protein stability index was 3.6.

In the case of FCPDSENRIGNSGVEEIKGHPFFE, the protein stability index is 1.85.

In the case of FCKDSENRIGNSGVEEIKGHPFFE, the protein stability index stood at 2.5.

As for FCIDSENRIGNSGVEEIKGHPFTE, the protein stability index stood at 1.46.

Consider FCIDSENRIGNSGVSEIKGHPFFE, for which the protein stability index was determined as 1.96.

As for FCIDSENRIGNSGVNEIKGHPFFE, the protein stability index is 1.64.

Take FCIDSENRIGNSGVDEIKGHPFFE: the protein stability index was found to be 1.62.

Regarding FCIDSENRIGNSGVYEIKGHPFFE, the protein stability index was determined as 1.92.

As to FCIDSENRIGNSGVEEIKGHPFFN, the protein stability index was 2.19.

Regarding FCIDSENRIGNSGVEEIKGHPFFA, the protein stability index is 1.92.

Consider FIIDSENRIGNSGVEEIKGHPFFE, for which the protein stability index was determined as 2.69.

Take FSIDSENRIGNSGVEEIKGHPFFE: the protein stability index was determined as 3.61.

Take FWIDSENRIGNSGVEEIKGHPFFE: the protein stability index is 2.62.

As for FPIDSENRIGNSGVEEIKGHPFFE, the protein stability index is 2.39.

For FKIDSENRIGNSGVEEIKGHPFFE, the protein stability index is 3.37.

As to FGIDSENRIGNSGVEEIKGHPFFE, the protein stability index came out at 4.21.

With FMIDSENRIGNSGVEEIKGHPFFE, the protein stability index was 3.58.

Consider FCIDSENRIGNSHVEEIKGHPFFE, for which the protein stability index came to 2.56.

For the variant FCIDSENRIGNSYVEEIKGHPFFE, the protein stability index amounted to 2.28.

Turning to FCIDSENRIGNSAVEEIKGHPFFE, the protein stability index was 2.07.

For the variant FCIDSENRIGNSRVEEIKGHPFFE, the protein stability index turned out to be 2.26.

Regarding FCIDSENRIGNSTVEEIKGHPFFE, the protein stability index was found to be 2.75.

For FCIDSENPIGNSGVEEIKGHPFFE, the protein stability index is 2.71.

For FCIDSENHIGNSGVEEIKGHPFFE, the protein stability index worked out at 2.72.

As for FCIDSENGIGNSGVEEIKGHPFFE, the protein stability index was 2.8.

As to FCIDSENKIGNSGVEEIKGHPFFE, the protein stability index is 2.37.

With FCIDSENCIGNSGVEEIKGHPFFE, the protein stability index is 2.17.

Turning to FCIDSENRIGNSGVEEIKGHPKFE, the protein stability index worked out at 4.49.

For the variant FCIDSENRIGNSGVEEIKGHPVFE, the protein stability index worked out at 4.11.

As to YCIDSENRIGNSGVEEIKGHPFFE, the protein stability index is 2.48.

As for GCIDSENRIGNSGVEEIKGHPFFE, the protein stability index came to 4.26.

With LCIDSENRIGNSGVEEIKGHPFFE, the protein stability index was 3.66.

With TCIDSENRIGNSGVEEIKGHPFFE, the protein stability index stood at 4.42.

For MCIDSENRIGNSGVEEIKGHPFFE, the protein stability index was 4.78.

With FCIDSENRIGNSGVEEIKGQPFFE, the protein stability index worked out at 3.48.

Regarding FCIDSENRIGNSGVEEIKGPPFFE, the protein stability index came to 3.45.

As for FCIDSENRIGNSGREEIKGHPFFE, the protein stability index came out at 2.32.

With FCIDSENRIGNSGIEEIKGHPFFE, the protein stability index was 2.1.

Turning to FCIDSENRIGNSGPEEIKGHPFFE, the protein stability index came out at 2.46.

Regarding FCIDSENRIGNSGCEEIKGHPFFE, the protein stability index worked out at 2.27.

In the case of FCIDSENRIGMSGVEEIKGHPFFE, the protein stability index was 1.83.

As to FCIDSENRIGTSGVEEIKGHPFFE, the protein stability index came out at 1.81.

Take FCIDSENRIGLSGVEEIKGHPFFE: the protein stability index is 1.65.

FCIDSENRIGESGVEEIKGHPFFE: the protein stability index was found to be 3.11.

For FCIDSENRIGASGVEEIKGHPFFE, the protein stability index came to 2.11.
